Square brackets hold non-standard residues; d marks the D form. Ends that are not written are not given here.
Experiments:
Experiment in all cases: fluorescence polarisation + other: time-gated luminescence intensity (TGLI); binding/displacement assay in solution with the probes ARC-1451, ARC-1188 or ARC-583; 20 min at 30 °C; 50 mM HEPES pH 7.4, 150 mM NaCl, 5 mM dithiothreitol, 0.5 mg/mL BSA, 0.005% Tween-20; N = 2
Settings in all cases: both partners purified
protein kinase PIM-1 = protein kinase PIM-1 (human, UniProt P11309 1-313)
[1] = target: catalytic subunit α of protein kinase A (human, UniProt P17612 1-351)
protein kinase PIM-3 = protein kinase PIM-3 (human, UniProt Q86V86 1-326)
protein kinase PIM-2 = protein kinase PIM-2 (human, UniProt Q9P1W9 1-311)
Chain of protein kinase PIM-2 (Q9P1W9 whole entry): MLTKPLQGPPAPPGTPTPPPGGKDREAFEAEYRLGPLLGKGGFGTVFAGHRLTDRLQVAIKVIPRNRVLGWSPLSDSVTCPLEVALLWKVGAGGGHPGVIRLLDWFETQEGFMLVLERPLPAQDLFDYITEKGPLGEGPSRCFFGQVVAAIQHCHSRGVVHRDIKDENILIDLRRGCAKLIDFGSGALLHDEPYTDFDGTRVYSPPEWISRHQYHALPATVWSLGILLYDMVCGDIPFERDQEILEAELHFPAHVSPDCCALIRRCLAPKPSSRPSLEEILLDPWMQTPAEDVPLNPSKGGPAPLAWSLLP

Chain of protein kinase PIM-1 (P11309 whole entry): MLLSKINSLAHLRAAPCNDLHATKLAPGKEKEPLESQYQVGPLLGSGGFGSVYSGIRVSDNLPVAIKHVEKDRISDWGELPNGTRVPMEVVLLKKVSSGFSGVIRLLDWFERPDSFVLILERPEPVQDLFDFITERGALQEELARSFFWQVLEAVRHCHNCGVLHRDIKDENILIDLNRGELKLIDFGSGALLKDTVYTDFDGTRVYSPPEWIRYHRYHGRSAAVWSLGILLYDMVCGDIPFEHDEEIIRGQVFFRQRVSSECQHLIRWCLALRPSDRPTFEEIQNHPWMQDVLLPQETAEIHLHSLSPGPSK

B1: PIM peptide, (D-Arg)2-Gly-D-Arg-D-Lys-NH2 (peptide)
peptide: [dR][dR]G[dR][dK]-NH2
modifications: N-terminus assumed
SMILES: N=C(N)NCCC[C@@H](N)C(=O)N[C@H](CCCNC(=N)N)C(=O)NCC(=O)N[C@H](CCCNC(=N)N)C(=O)N[C@H](CCCCN)C(N)=O
notes: printed in three-letter code as (D-Arg)2-Gly-D-Arg-D-Lys-NH2; All chiral residues are D-amino acids; This is the peptide part of compounds 1-5, without the adenosine analogue moiety and the linker; also called designed peptide mimetic moiety of compounds 1-5; source: synthetic peptide (Fmoc solid-phase synthesis on Rink amide resin, HPLC purified)
Protein kinase PIM-1
  Kd: > 11.5 µM
[1]
  Kd: > 89 µM
Protein kinase PIM-3
  Kd: > 16.4 µM
Protein kinase PIM-2
  Kd: > 46 µM
